Laboratory results published in the supplement of paper PMC10567573.

B1: ZNF511 (parent)
chain: YEHHYHTLHGNVCSFCKRAFPSGH

Variants of: B1
Test: protein stability index of a GFP-peptide fusion (GPS, HEK-293T) (PSI 1-6); higher = more stable
Conditions: c terminus: a fixed tail appended
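Also: lentivirally expressed fusions sorted by FACS into six bins by GFP to DsRed ratio, PSI derived from sequencing read proportions per bin multiplied by bin number.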

Protein stability index, by site and new letter:
F15: A 2.76; N 2.72; K 2.21; G 2.93; H 2.39; T 2.99; E 2.79; D 2.48; M 2.54; I 2.38; V 2; Y 2.31; P 2.01; S 2.39; W 2.96; Q 3.25; C 3.02; L 2.32; R 2.35
C13: G 2.54; S 2.22; W 1.52; I 2.6; A 2.18; L 1.5; P 2.11; R 2.17; E 2.36; N 2.67; D 2.29; Q 2.63; V 1.92; F 1.5; T 1.97; M 1.83; K 2.04; Y 1.78; H 1.9
G23: C 2.33; E 1.86; F 1.83; D 2.31; A 2.1; H 1.38
H6: N 2.33; M 1.6; C 2.6; T 1.94; Q 1.88; I 2.15; E 2.4; D 2.34; G 1.69; Y 1.83; F 1.48; R 1.38; A 1.88; S 1.92; K 1.53; V 2.51; P 1.68; W 1.66; L 1.72
N11: H 2.21; T 2.68; R 2.62; M 2.68; V 1.87; G 2.12; A 2.64; L 1.77; P 2.6; Q 2.2; Y 1.99; D 2.75; F 2.6; S 1.95; E 2.22; W 2.17; I 1.83; K 2.31; C 2.73
G10: I 1.83; P 1.95; H 1.87; N 2.28; T 2.13; Y 2.46; F 1.78; M 2.01; C 2.46; V 1.87; S 1.97; K 2.76; E 2.39; R 1.59; D 2.29; Q 1.78; L 1.95; A 2.23; W 2.29
S14: E 2.53; Q 2.88; M 2.3; T 2.23; P 3.3; R 2.87; A 2.94; N 2.57; L 2.04; G 1.88; C 2.39; Y 3.38; D 2.4; K 2.3; H 2.31; F 2.03; W 2.53; I 2.53; V 1.38
R18: F 1.94; M 1.96; S 2.26; Q 1.53; V 1.73; T 2.29; N 2.37; I 1.6; G 2.27; Y 2.24; C 1.89; L 2.17; E 2.14; D 2.46; W 1.79; P 2.87; K 2.23; A 2.06; H 2.29
L8: K 2.26; F 2.62; T 2.67; A 2.47; R 2.4; P 2.43; C 3.62; D 2.57; M 2.12; V 2.74; S 2.23; Q 2.62; I 2.44; H 2.92; G 2.52; Y 2.6; N 2.67; E 2.65; W 2.3
C16: L 2.1; R 2.17; G 2; M 2.01; E 2.5; V 2.14; W 1.62; N 2.12; S 1.71; I 1.86; A 2.05; H 1.82; Q 2.26; P 2.02; Y 2.09; K 2.35; T 2.4; D 2.17; F 1.99
P21: F 2.13; K 1.9; T 2.38; H 2.32; L 2.36; M 2.57; N 1.97; D 2.88; I 2.29; G 2.31; R 1.91; A 2.6; V 2.34; E 2.2; W 1.61; Q 1.97; S 2.48; Y 1.77; C 3.6
A19: M 2.29; P 1.89; E 2.13; Q 1.47; I 1.85; K 2.11; Y 2.25; D 2.42; S 2.28; H 2.85; W 2.25; L 2.36; V 1.99; T 2.29; F 2.84; G 1.96; R 2.37; N 2.37; C 2.19
F20: S 2.96; C 2.55; L 2.27; Q 2.37; T 2.68; M 2.38; H 3.37; A 2.41; G 2.82; K 2.64; D 3.27; I 2.23; Y 2.25; P 2.34; V 2.58; R 2.12; N 3.13; E 2.4; W 2.42
S22: Q 1.45; G 2.02; L 2.87; T 2.27; I 2.24; W 1.47; E 2.44; M 2.89; V 1.84; N 3.01; D 2.33; K 1.8; Y 1.7; H 2.99; R 2.03; A 2.08; P 2.67; F 2.15; C 2.69
V12: E 3.67; C 2.02; K 2; M 2.17; Q 2.66; T 2.44; Y 2.13; F 2.05; G 1.84; N 2.73; A 2.44; W 2.14; S 2.41; L 2.06; R 2.24; H 2.4; I 2.3; P 2.31; D 3.41
K17: W 1.3; P 1.78; Y 1.77; G 2.61; H 2.18; L 2.4; T 2.02; A 2.23; N 2.18; V 1.87; E 2.59; I 1.84; S 2.22; D 2.5; M 1.77; R 2.2; F 1.84; C 1.89; Q 2.41
Y5: V 3.47; S 3.01; T 3.67; W 2.32; R 2.62
T7: F 2.06; Y 2.09; V 1.85; Q 1.9; C 2.77; L 2.28; K 1.24; I 2.31; P 2.2; E 2.07; H 2.46; W 1.75; G 2.14; A 1.95; D 2.64; R 2.07; M 2.86; N 2.09; S 1.72
H9: I 2.28; E 1.93; Q 2.19; M 2.06; A 1.93; C 2.18; N 2.49; R 2.48; K 2.77; W 1.83; T 2.16; S 1.72; P 2.72; V 2.57; G 2.24; L 1.5; D 1.97; Y 2; F 1.68
